Patent US20250019427A1 (BYOMASS, published 2025)
Residue numbers refer to the chain shown, from its start.

Key:
GDF15 = target: T1, GDF15 (Homo sapiens (Human), UniProt Q99988 30-308); test: cell-based or functional assay
T1 sequence: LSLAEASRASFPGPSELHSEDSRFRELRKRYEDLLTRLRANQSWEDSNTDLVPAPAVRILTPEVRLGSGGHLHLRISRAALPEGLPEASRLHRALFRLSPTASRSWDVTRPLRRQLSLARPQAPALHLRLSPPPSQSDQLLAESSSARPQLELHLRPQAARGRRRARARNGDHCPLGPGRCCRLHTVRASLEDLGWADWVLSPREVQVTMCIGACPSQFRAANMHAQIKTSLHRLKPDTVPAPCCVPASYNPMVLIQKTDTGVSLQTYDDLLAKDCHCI

Human BMP9 = target: T2, Human BMP9 (human, UniProt Q9UK05 320-429); test: Octet BLI, IgG on tip, avid
T2 sequence (looked up): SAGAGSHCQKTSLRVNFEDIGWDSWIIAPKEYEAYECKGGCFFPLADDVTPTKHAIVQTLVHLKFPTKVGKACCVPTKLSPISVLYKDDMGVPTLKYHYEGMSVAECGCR

Human BMP10 = target: T3, Human BMP10 (human, UniProt O95393 317-424); test: Octet BLI, IgG on tip, avid
T3 sequence (looked up): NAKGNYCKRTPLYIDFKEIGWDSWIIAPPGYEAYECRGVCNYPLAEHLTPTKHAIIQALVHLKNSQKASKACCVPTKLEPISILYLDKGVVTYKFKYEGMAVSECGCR

GDF10 = target: T4, GDF10 (UniProt P55107 369-478); test: Octet BLI, IgG on tip, avid
T4 sequence (looked up): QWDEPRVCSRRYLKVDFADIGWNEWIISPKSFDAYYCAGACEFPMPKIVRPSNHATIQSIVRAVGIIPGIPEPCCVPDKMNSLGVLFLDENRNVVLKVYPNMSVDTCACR

Human Activin B = target: T5, Human Activin B (human, UniProt P09529 293-407); test: Octet BLI, IgG on tip, avid
T5 construct: Also used for the Activin B ligand of the ActRIIB/SMAD reporter assay, where the species is not restated
T5 sequence (looked up): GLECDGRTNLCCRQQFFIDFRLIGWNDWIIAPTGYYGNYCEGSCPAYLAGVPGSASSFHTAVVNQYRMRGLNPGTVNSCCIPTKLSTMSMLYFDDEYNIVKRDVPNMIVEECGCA

Human Activin A Fc = target: T6, Human Activin A Fc (human, UniProt P08476 311-426); test: Octet BLI, IgG on tip, avid
T6 sequence (looked up): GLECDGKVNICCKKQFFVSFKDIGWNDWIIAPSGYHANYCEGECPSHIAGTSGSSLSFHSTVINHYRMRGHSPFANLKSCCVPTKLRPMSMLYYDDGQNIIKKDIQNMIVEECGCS

GDF8 = GDF8 (UniProt O14793 267-375); test: Octet BLI, IgG on tip, avid
GDF11 = target: T7, GDF11 (UniProt O95390 299-407); test: Octet BLI, IgG on tip, avid
T7 construct: Also the GDF-11 ligand of the ActRIIB/SMAD reporter assay
T7 sequence (O95390 299-407 limits assumed): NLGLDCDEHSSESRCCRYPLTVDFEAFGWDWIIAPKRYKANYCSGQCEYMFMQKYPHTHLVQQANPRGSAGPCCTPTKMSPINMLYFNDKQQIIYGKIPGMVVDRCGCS

GDNF = target: T8, GDNF (UniProt P39905 78-211); test: Octet BLI, IgG on tip, avid
T8 sequence (looked up): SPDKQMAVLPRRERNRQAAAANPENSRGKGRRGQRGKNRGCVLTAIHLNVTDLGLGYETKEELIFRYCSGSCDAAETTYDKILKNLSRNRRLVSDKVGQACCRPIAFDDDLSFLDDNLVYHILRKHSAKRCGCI

Cyno GDF15 Fc = target: T9, Cyno GDF15 Fc (cyno, UniProt G7PWZ3 193-308); test: Octet BLI, Fab monovalent
T9 construct: also called cyno GDF15-Fc fusion
T9 sequence: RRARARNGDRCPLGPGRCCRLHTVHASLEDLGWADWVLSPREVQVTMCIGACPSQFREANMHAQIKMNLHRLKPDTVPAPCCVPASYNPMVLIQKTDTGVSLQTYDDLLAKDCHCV

Mouse GDF15 Fc = target: T10, Mouse GDF15 Fc (mouse, UniProt Q9Z0J7 189-303, limits assumed); test: Octet BLI, Fab monovalent
T10 construct: also called mouse GDF15Fc fusion
T10 sequence (looked up): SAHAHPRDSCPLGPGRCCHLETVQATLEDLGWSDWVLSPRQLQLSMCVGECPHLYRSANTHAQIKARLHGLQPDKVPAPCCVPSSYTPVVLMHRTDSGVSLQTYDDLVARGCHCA

B1: Clone J IgG (antibody, V domains shown)
VH: QVQLVQSGAEVKKPGASVKVSCKASGYTFTSYGINWVRQAPGQGLEWMGWIDAYSGSTNYAQKLQGRVTMTTDTSTSTAYMELRSLRSDDTAVYYCARGPGQYADVDVWGQGTMVTVSS
VL: DIQMTQSPSSVSASVGDRVTITCRASQGISSWLAWYQQKPGKAPKLLIYAASSLQSGVPSRFSGSGSGTDFTLTISSLQPEDFATYYCQQANSFPITFGGGTKVEIKR
notes: IgG format
GDF15 - GFRAL RET pERK IC50 (pM) (GDF15): 30.3 pM
GDF15 - GFRAL-RET Luciferase IC50 (pM) (GDF15): 110 pM
binding result (Human BMP9): no binding (tested: 100 nM)
binding result (Human BMP10): no binding (tested: 100 nM)
binding result (GDF10): no binding (tested: 100 nM)
binding result (Human Activin B): no binding (tested: 100 nM)
binding result (Human Activin A Fc): no binding (tested: 100 nM)
binding result (GDF8): no binding (tested: 100 nM)
binding result (GDF11): no binding (tested: 100 nM)

B2: Clone K IgG (antibody, V domains shown)
VH: QVQLVQSGAEVKKPGASVKVSCKASGYTFTNEGISWVRQAPGQGLEWMGWISAYTADTFYAQKLQGRVTMTTDTSTSTAYMELRSLRSDDTAVYYCARTRHDTSGLRFDYWGQGTLVTVSS
VL: B1 VL with S30D, A91V, N92H
notes: IgG format
GDF15 - GFRAL RET pERK IC50 (pM) (GDF15): 187 pM
GDF15 - GFRAL-RET Luciferase IC50 (pM) (GDF15): 813 pM
Kd (GDNF): 333 nM
binding result (Human BMP9): no binding (tested: 100 nM)
binding result (Human BMP10): no binding (tested: 100 nM)
binding result (GDF10): no binding (tested: 100 nM)
binding result (Human Activin B): no binding (tested: 100 nM)
binding result (Human Activin A Fc): no binding (tested: 100 nM)
binding result (GDF8): no binding (tested: 100 nM)
binding result (GDF11): no binding (tested: 100 nM)

B3: Clone P IgG (antibody, V domains shown)
VH: QVQLVQSGAEVKKPGATVKVSCKASGYTFDSYGIHWVRQAPGQGLEWMGWITAYSGDTVYAQKLQGRVTMTTDTSTSTAYMELRSLRSDDTAVYYCARESGQTSSALGPWGQGTLVTVSS
VL: B1 VL with S31R, A91G, N92A, I96L
notes: IgG format
GDF15 - GFRAL RET pERK IC50 (pM) (GDF15): 35.6 pM
binding result (Human BMP9): no binding (tested: 100 nM)
binding result (Human BMP10): no binding (tested: 100 nM)
binding result (GDF10): no binding (tested: 100 nM)
binding result (Human Activin B): no binding (tested: 100 nM)
binding result (Human Activin A Fc): no binding (tested: 100 nM)
binding result (GDF8): no binding (tested: 100 nM)
binding result (GDF11): no binding (tested: 100 nM)

B4: Clone T IgG (antibody, V domains shown)
VH: B1 VH with D52T, S57D
VL: B1 VL with N92S, S93Q
notes: IgG format
binding result (GDNF): no binding (tested: 100 nM)
binding result (Human BMP9): no binding (tested: 100 nM)
binding result (Human BMP10): no binding (tested: 100 nM)
binding result (GDF10): no binding (tested: 100 nM)
binding result (Human Activin B): no binding (tested: 100 nM)
binding result (Human Activin A Fc): no binding (tested: 100 nM)
binding result (GDF8): no binding (tested: 100 nM)
binding result (GDF11): no binding (tested: 100 nM)

B5: Clone S IgG (antibody, V domains shown)
VH: B1 VH with D52T, S57D
VL: B1 VL with M4L, S31P
notes: IgG format
binding result (GDNF): no binding (tested: 100 nM)
binding result (Human BMP9): no binding (tested: 100 nM)
binding result (Human BMP10): no binding (tested: 100 nM)
binding result (GDF10): no binding (tested: 100 nM)
binding result (Human Activin B): no binding (tested: 100 nM)
binding result (Human Activin A Fc): no binding (tested: 100 nM)
binding result (GDF8): no binding (tested: 100 nM)
binding result (GDF11): no binding (tested: 100 nM)

B6: Clone L IgG (antibody, V domains shown)
VH: B2 VH with T30A, N31S, E32Y, G33D, S35I, Y54L, T55S, A56G, F59V, L106I
VL: B1 VL with S30D, A91V, N92H
notes: IgG format
GDF15 - GFRAL RET pERK IC50 (pM) (GDF15): 13.5 pM
GDF15 - GFRAL-RET Luciferase IC50 (pM) (GDF15): 274 pM
Kd (GDNF): 229 nM
binding result (Human BMP9): no binding (tested: 100 nM)
binding result (Human BMP10): no binding (tested: 100 nM)
binding result (GDF10): no binding (tested: 100 nM)
binding result (Human Activin B): no binding (tested: 100 nM)
binding result (Human Activin A Fc): no binding (tested: 100 nM)
binding result (GDF8): no binding (tested: 100 nM)
binding result (GDF11): no binding (tested: 100 nM)

B7: Clone H IgG (antibody, V domains shown)
VH: QVQLVQSGAEVKKPGSSVKVSCKASGGTFSSYYISWVRQAPGQGLEWMGGIAPISGTASYAQKFQGRVTITADESTSTAYMELSSLRSEDTAVYYCARGLAYDGYFDLWGRGTLVTVSS
VL: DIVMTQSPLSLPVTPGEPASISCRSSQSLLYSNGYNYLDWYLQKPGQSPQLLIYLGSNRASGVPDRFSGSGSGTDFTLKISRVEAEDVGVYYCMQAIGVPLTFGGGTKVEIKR
notes: IgG format
GDF15 - GFRAL RET pERK IC50 (pM) (GDF15): 254 pM
GDF15 - GFRAL-RET Luciferase IC50 (pM) (GDF15): 200 pM
binding result (GDNF): no binding (tested: 100 nM)
binding result (Human BMP9): no binding (tested: 100 nM)
binding result (Human BMP10): no binding (tested: 100 nM)
binding result (GDF10): no binding (tested: 100 nM)
binding result (Human Activin B): no binding (tested: 100 nM)
binding result (Human Activin A Fc): no binding (tested: 100 nM)
binding result (GDF8): no binding (tested: 100 nM)
binding result (GDF11): no binding (tested: 100 nM)

B8: Clone M IgG (antibody, V domains shown)
VH: QVQLVQSGAEVKKPGASVKVSCKASGYTFDSYGINWVRQAPGQGLEWMGWISAYSGDTAYAQELQGRVTMTTDTSTSTAYMELRSLRSDDTAVYYCVRDTQYGGSPYWGQGTLVTVSS
VL: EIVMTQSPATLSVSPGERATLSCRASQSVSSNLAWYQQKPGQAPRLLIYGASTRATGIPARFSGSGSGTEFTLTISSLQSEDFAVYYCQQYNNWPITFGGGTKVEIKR
notes: IgG format
GDF15 - GFRAL RET pERK IC50 (pM) (GDF15): 88.7 pM
Kd (GDNF): 31.4 nM
binding result (Human BMP9): no binding (tested: 100 nM)
binding result (Human BMP10): no binding (tested: 100 nM)
binding result (GDF10): no binding (tested: 100 nM)
binding result (Human Activin B): no binding (tested: 100 nM)
binding result (Human Activin A Fc): no binding (tested: 100 nM)
binding result (GDF8): no binding (tested: 100 nM)
binding result (GDF11): no binding (tested: 100 nM)

B9: Clone M Fab (Fab, V domains shown)
VH: B8 VH
VL: EIVMTQSPATLSVSPGERATLSCRASQSVSSNLAWYQQKPGQAPRLLIYGASTRATGIPARFSGSGSGTEFTLTISSLQSEDFAVYYCQQYNNWPITFGGGTKVEIK
notes: Fab format
Kd (Cyno GDF15 Fc): 1.91 nM
Kd (Mouse GDF15 Fc): 31.4 nM
GDF15 GFRAL RET pERK Fab IC50 pM (GDF15): 1370 pM

B10: Clone K Fab (Fab, V domains shown)
VH: B2 VH
VL: DIQMTQSPSSVSASVGDRVTITCRASQGIDSWLAWYQQKPGKAPKLLIYAASSLQSGVPSRFSGSGSGTDFTLTISSLQPEDFATYYCQQVHSFPITFGGGTKVEIK
notes: Fab format
Kd (Cyno GDF15 Fc): 2.4 nM
Kd (Mouse GDF15 Fc): 333 nM
GDF15 GFRAL RET pERK Fab IC50 pM (GDF15): 169 pM

B11: Clone L Fab (Fab, V domains shown)
VH: B2 VH with T30A, N31S, E32Y, G33D, S35I, Y54L, T55S, A56G, F59V, L106I
VL: B10 VL
notes: Fab format
Kd (Cyno GDF15 Fc): 1.56 nM
Kd (Mouse GDF15 Fc): 229 nM
GDF15 GFRAL RET pERK Fab IC50 pM (GDF15): 2.1 µM
